Experimental data published in patent US20240409638A1 (AVACTA LIFE SCIENCES, published 2024).

Assays:
[1] = biological target: T1, human PD-L1-Fc (R&D Systems) (human, UniProt Q9NZQ7 19-239); test: SPR (Biacore) kinetics: human PD-L1-Fc immobilised on a CM5 chip, AFFIMER as analyte
T1 construct: Bought reagent; also called huPD-L1-Fc; huPD-L1; not shown: Fc part of the bought fusion

[2] = biological target: T2, human serum albumin (HSA) (human, UniProt P02768 25-609); test: SPR (Biacore 8K): HSA amine-coupled on a CM5 chip, AFFIMER as analyte, pH 7.4, 1:1 Langmuir fit
T2 construct: The assays used bought HSA (Sigma #A37812 in the SPR work); also called HuSA
T2 sequence (P02768 25-609): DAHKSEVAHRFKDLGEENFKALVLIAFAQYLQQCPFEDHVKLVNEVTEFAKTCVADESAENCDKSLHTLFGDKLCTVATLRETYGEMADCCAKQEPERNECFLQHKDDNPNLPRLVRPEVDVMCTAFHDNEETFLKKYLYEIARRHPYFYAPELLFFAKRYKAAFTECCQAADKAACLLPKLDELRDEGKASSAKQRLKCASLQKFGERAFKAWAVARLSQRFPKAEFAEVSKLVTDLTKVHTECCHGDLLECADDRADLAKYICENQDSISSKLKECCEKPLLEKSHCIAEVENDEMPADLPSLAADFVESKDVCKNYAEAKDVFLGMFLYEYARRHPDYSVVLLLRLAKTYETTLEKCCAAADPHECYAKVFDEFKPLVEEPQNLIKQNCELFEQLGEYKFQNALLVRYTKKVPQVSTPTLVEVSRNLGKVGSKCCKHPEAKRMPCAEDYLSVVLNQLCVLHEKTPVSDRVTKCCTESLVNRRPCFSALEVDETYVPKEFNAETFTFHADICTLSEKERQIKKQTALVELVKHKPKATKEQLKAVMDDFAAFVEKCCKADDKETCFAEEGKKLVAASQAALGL
Method: (§1) For the HSA binding kinetic analysis, HSA (Sigma #A37812) was immobilized on a CM5 chip surface using amine coupling in 10 mM sodium acetate (pH 5.0) (Cytvia). […] The chip surface was regenerated with 3 mM NaOH for 20 seconds at a flow rate of 20 μl/min. The kinetic data was blank subtracted and fit to a 1:1 Langmuir binding model (BIAcore evaluation software; Cytiva).

[3] = biological target: T1, human PD-L1-Fc (R&D Systems); test: SPR (Biacore) kinetics: human PD-L1-Fc immobilised on a CM5 chip, AFFIMER as analyte (column KD (pM), the same fit as the KD (M) column)
[4] = biological target: T3, PD-L1 on cells (NCI-H441 cells; aAPC PD-L1/CHO-K1 cells, Promega) (human, UniProt Q9NZQ7 19-290); test: cell-based or functional assay
T3 sequence (Q9NZQ7 19-290): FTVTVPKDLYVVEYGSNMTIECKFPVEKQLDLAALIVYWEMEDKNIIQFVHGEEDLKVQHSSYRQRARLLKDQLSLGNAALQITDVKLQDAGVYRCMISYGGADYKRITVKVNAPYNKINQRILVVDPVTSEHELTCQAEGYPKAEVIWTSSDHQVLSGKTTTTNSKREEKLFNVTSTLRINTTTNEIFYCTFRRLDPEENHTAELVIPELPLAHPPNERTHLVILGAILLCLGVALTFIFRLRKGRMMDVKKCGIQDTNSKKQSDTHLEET

[5] = biological target: T2, human serum albumin (HSA); test: SPR (Biacore 8K): HSA amine-coupled on a CM5 chip, AFFIMER as analyte, pH 6.0, 1:1 Langmuir fit
Method: as §1

[6] = biological target: T2, human serum albumin (HSA); test: HSA binding ELISA: HSA coated, bound AFFIMER detected with biotinylated anti-cystatin A antibody and streptavidin-HRP
Method: (§2) Plates were washed and AFFIMER® polypeptides were detected using streptavidin-HRP for 30 min. After the last washing step, the TMB substrate was added for the development of the experiment and plates were read at 450 nm. The EC₅₀ was then calculated using the interpolated non-linear four-parameters standard curve.

[7] = biological target: T4, murine serum albumin (MSA) (murine, UniProt P07724 25-608); test: SPR, Biacore, MSA amine-coupled on CM5; E. coli-produced format
T4 construct: Bought reagent

[8] = biological target: T3, PD-L1 on cells (NCI-H441 cells; aAPC …); test: cell-based or functional assay; remark: listed apart in the source
[9] = biological target: T1, human PD-L1-Fc (R&D Systems); test: human PD-L1-Fc binding ELISA: huPD-L1-Fc coated, anti-cystatin A detection
[10] = biological target: T1, human PD-L1-Fc (R&D Systems); test: human PD-L1-Fc/HSA bridging ELISA: huPD-L1-Fc coated, AFFIMER titrated with 10 µM HSA, detection with HRP-conjugated anti-HSA antibody (the signal needs PD-L1 and HSA bound at once)
Method: After saturation with 5% casein/PBS buffer, the plates were washed and a dilution of AFFIMER® polypeptides or controls was incubated with HSA at a final concentration of 10 μM for 90 minutes. Plates were then washed, and a […] polyclonal antibody, anti-HSA (HRP-conjugated) (Abcam), was added for 90 minutes. After a last washing step, TMB was added for the development of the experiment and the plates were read at 450 nm. The EC₅₀ was then calculated using the interpolated non-linear four-parameters standard curve (FIG. 10).

[11] = biological target: T4, murine serum albumin (MSA); test: SPR (Biacore): immobilized ligand MSA (Sigma # A3559), AFFIMER as analyte, pH 7.0 by the legend
[12] = biological target: T2, human serum albumin (HSA); test: SPR, Biacore, HSA amine-coupled on CM5; E. coli-produced format
Method: as §1

[13] = biological target: T2, human serum albumin (HSA); test: SPR (Biacore): immobilized ligand HSA (Sigma # A3782), AFFIMER as analyte, pH 7.0 by the legend
Method: as §1

[14] = biological target: T1, human PD-L1-Fc (R&D Systems); test: PD-L1/PD-1 competition ELISA (binding inhibition %): human PD-1-Fc coated, AFFIMER preincubated with huPD-L1-Fc at its EC80, bound PD-L1 detected; blocked ligand: human PD-1-Fc. The table column is headed 'EC50 (nM)'; the text calls the values IC50
Method: Plates were washed two times with washing buffer (PBS, Tween 20 0.1%) with a plate washer and saturated with Casein 5% (Sigma) in PBS for 90 minutes at room temperature (25±1° C.). […] Plates were washed 3 times as described previously. […] Plates were washed 3 times as described previously and Streptavidin-HRP was added, and the plates were incubated for 30 minutes at room temperature (25±1° C.). Plates were washed a last time and the substrate (TMB; Pierce Thermo-Scientific) was added to the plate. After 10 minutes, the reaction was stopped using an acidic solution and the plates were read at absorbance 450-630 nm. The IC₅₀ was then calculated using the interpolated non-linear four-parameters standard curve.

[15] = biological target: T2, human serum albumin (HSA); test: HSA binding ELISA: HSA coated, anti-cystatin A detection
[16] = biological target: T1, human PD-L1-Fc (R&D Systems); test: human PD-L1-Fc binding ELISA: huPD-L1-Fc coated, anti-cystatin A detection, no HSA in the assay buffer
Method: as §2

T1 sequence (Q9NZQ7 19-239 limits assumed): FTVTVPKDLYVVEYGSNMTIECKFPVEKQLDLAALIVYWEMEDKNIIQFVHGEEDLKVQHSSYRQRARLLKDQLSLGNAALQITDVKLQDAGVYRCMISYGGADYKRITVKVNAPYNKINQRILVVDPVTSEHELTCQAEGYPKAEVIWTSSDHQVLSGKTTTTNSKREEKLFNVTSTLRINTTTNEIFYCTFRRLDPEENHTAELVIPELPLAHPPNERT

Kd [1]: 0.0686 nM | koff [1]: 6.07e-05 s⁻¹ | kon [1]: 884000 M⁻¹ s⁻¹ | Kd [2]: 6.13 nM | koff [2]: 0.00589 s⁻¹ | kon [2]: 961000 M⁻¹ s⁻¹ | Kd [3]: 0.0796 nM | half-maximal concentration of PD-1/PD-L1 blockade (% of inhibition, NFAT-luciferase reporter cells; IC50) [4]: 33.4 nM | Kd [5]: 4.44 nM | koff [5]: 0.00302 s⁻¹ | kon [5]: 681000 M⁻¹ s⁻¹ | EC50 [6]: 0.03 nM | Kd [7]: 269 nM | IC50 of PD-1/PD-L1 blockade (% of inhibition, Promega NFAT-luciferase reporter cells) [8]: 131 nM | EC50 [9]: 0.01 nM | EC50 [10]: 0.57 nM | koff [11]: 0.0474 s⁻¹ | kon [11]: 176000 M⁻¹ s⁻¹ | Kd [12]: 9 nM | Kd [13]: 9.09 nM | koff [13]: 0.00359 s⁻¹ | kon [13]: 395000 M⁻¹ s⁻¹ | IC50 [14]: 0.84 nM | EC50 [15]: 1.03 nM | EC50 [16]: 0.036 nM
B1: Clone 80 XT35 (anti-PD-L1 type III AFFIMER® XT in-line fusion dimer XT) (designed binder)
chain: MIPGGLSEAKPATPEIQEIVDKVKPQLEEKTGETYGKLEAVQYKTQVVRRKHFPQWPGTNYYIKVRAGDNKYMHLKVFKSLDLQPREVFQEDLVLTGYQVDKNKDDELTGFAEAAAKEAAAKEAAAKEAAAKEAAAKEAAAKMIPGGLSEAKPATPEIQEIVDKVKPQLEEKTGETYGKLEAVQYKTQVVRRKHFPQWPGTNYYIKVRAGDNKYMHLKVFKSLDLQPREVFQEDLVLTGYQVDKNKDDELTGFAEAAAKEAAAKEAAAKEAAAKEAAAKEAAAKMIPRGLSEAKPATPEIQEIVDKVKPQLEEKTNETYGKLEAVQYKTQVLANFFQRRWPGSTNYYIKVRAGDNKYMHLKVFNGPWKFRNTDRGADRVLTGYQVDKNKDDELTGFHHHHHH
notes: Made in E. coli; Two Clone 80 units are fused to one HSA-41; also called XT35_1; ILF trimer format
